Assays:
[1] = tested on: crypto-P. agglomerans AdmI labeled with coumarin-PPant
[2] = tested on: crypto-ybbR-eGFP fusion with N-terminal 6xHis and C-terminal GFP (coumarin-PPant labeled)
[3] = tested on: crypto-FITC-ybbR (rhodamine WT PPant-labeled FITC-ybbR)
[4] = tested on: crypto-A. orientalis CepK labeled with coumarin-PPant
[5] = tested on: crypto-A. parasiticus PksA carrier protein labeled with coumarin-PPant
[6] = tested on: crypto-S. coelicolor ActACP labeled with coumarin-PPant
[7] = tested on: holo-SoAcpP (S. oneidensis type II FAS AcpP)
[8] = tested on: crypto-G. fujikuroi Pks4 carrier protein labeled with coumarin-PPant
[9] = tested on: crypto-E. coli AcpP (type II FAS acyl carrier protein labeled with coumarin-PPant)
[10] = tested on: crypto-ybbR-eGFP fusion with N-terminal GFP and C-terminal 6xHis (coumarin-PPant labeled)
[11] = tested on: crypto-L. majuscula JamF labeled with coumarin-PPant
[12] = tested on: coumarin-PPant labeled FITC-ybbR conjugate
[13] = tested on: crypto-P. syringae SyrB1 labeled with coumarin-PPant
[14] = tested on: crypto-MBP-PaAcpP (MBP fusion of P. aeruginosa AcpP labeled with coumarin-PPant)
[15] = tested on: crypto-P. agglomerans AdmA labeled with coumarin-PPant
[16] = tested on: crypto-P. fluorescens PltL labeled with coumarin-PPant
[17] = tested on: crypto-M. tuberculosis AcpM (Type II) labeled with coumarin-PPant
[18] = tested on: crypto-L. majuscula JamC labeled with coumarin-PPant
[19] = tested on: crypto-P. falciparum apicoplast ACP (Type II) labeled with coumarin-PPant
[20] = tested on: crypto-ybbR free peptide (coumarin-PPant labeled 11 amino acid ybbR)
[21] = tested on: crypto-V. cholerae VibB labeled with coumarin-PPant
[22] = tested on: holo-E. coli AcpP
[23] = tested on: crypto-Lux-ACP (rhodamine-PPT labeled fusion of bacterial luciferase with E. coli ACP)
[24] = tested on: crypto-MBP-PaACP (rhodamine-PPT labeled MBP fusion of P. aeruginosa ACP)
[25] = tested on: crypto-GFP-ACP (rhodamine-PPT labeled fusion of E. coli ACP with GFP)

“acyl carrier protein hydrolase (AcpH) from Cyanothece PCC 7822” was tested. Which “AcpH qualitative CP activity” value [1] did it give?
The value was “no”.

What about the “AcpH activity with modified ybbR peptide” value [2] of the same substance?
The value was “YES”.

And the Km [3]?
Its Km is 21 µM.

And the Vmax [3]?
The Vmax was 0.004 min⁻¹.

What about the kcat [3] of the same substance?
The kcat was 6.67e-05 s⁻¹.

What about the kcat/KM [3] of the same substance?
Its kcat/KM is 3.33 M⁻¹ s⁻¹.

And the “AcpH qualitative CP activity” value [4]?
The value was “no”.

What about the “AcpH qualitative CP activity” value [5] of the same substance?
The value was “YES”.

What about the “AcpH qualitative CP activity” value [6] of the same substance?
Its value is “no”.

And the “AcpH qualitative CP activity” value [7]?
The value was “YES^†”.

What about the “AcpH qualitative CP activity” value [8] of the same substance?
Its value is “no”.

And the “AcpH qualitative CP activity” value [9]?
The value was “YES”.

And the “AcpH activity with modified ybbR peptide” value [10]?
The value was “YES”.

What about the “AcpH qualitative CP activity” value [11] of the same substance?
The value was “no”.

What about the “AcpH activity with modified ybbR peptide” value [12] of the same substance?
Its value is “YES”.

And the “AcpH qualitative CP activity” value [13]?
Its value is “no”.

What about the “AcpH qualitative CP activity” value [14] of the same substance?
Its value is “YES”.

What about the “AcpH qualitative CP activity” value [15] of the same substance?
Its value is “no”.

What about the “AcpH qualitative CP activity” value [16] of the same substance?
Its value is “no”.

And the “AcpH qualitative CP activity” value [17]?
Its value is “YES”.

What about the “AcpH qualitative CP activity” value [18] of the same substance?
The value was “YES”.

And the “AcpH qualitative CP activity” value [19]?
Its value is “YES”.

What about the “AcpH activity with modified ybbR peptide” value [20] of the same substance?
Its value is “YES”.

What about the “AcpH qualitative CP activity” value [21] of the same substance?
The value was “no”.

And the Km [22]?
The Km was 58 µM.

What about the Vmax [22] of the same substance?
The Vmax was 1.1 min⁻¹.

And the kcat [22]?
The kcat was 3.52 s⁻¹.

And the kcat/KM [22]?
Its kcat/KM is 60000 M⁻¹ s⁻¹.

“acyl carrier protein hydrolase (AcpH) from Pseudomonas aeruginosa PAO1” was tested. Which “AcpH qualitative CP activity” value [1] did it give?
Its value is “no”.

And the “AcpH activity with modified ybbR peptide” value [2]?
The value was “no”.

What about the Km [3] of the same substance?
Its Km is 177 µM.

And the Vmax [3]?
The Vmax was 0.008 min⁻¹.

And the kcat [3]?
Its kcat is 0.000133 s⁻¹.

What about the kcat/KM [3] of the same substance?
The kcat/KM was 0.783 M⁻¹ s⁻¹.

What about the “AcpH qualitative CP activity” value [4] of the same substance?
Its value is “no”.

And the “AcpH qualitative CP activity” value [5]?
Its value is “YES”.

What about the “AcpH qualitative CP activity” value [6] of the same substance?
The value was “no”.

And the “AcpH qualitative CP activity” value [7]?
Its value is “YES^†”.

And the “AcpH qualitative CP activity” value [8]?
The value was “no”.

What about the “removal of rhodamine-PPT from ACP fusion protein” value (“removal of rhodamine-PPT” for short) [23] of the same substance?
Its value is “AcpH removed rhodamine-PPT from ACP attached to three different fusion partners ... an N-terminal bacterial luciferase fusion (Lux-ACP)”.

What about the “AcpH qualitative CP activity” value [9] of the same substance?
Its value is “YES”.

What about the “AcpH activity with modified ybbR peptide” value [10] of the same substance?
The value was “no”.

And the “AcpH qualitative CP activity” value [11]?
Its value is “no”.

And the “AcpH activity with modified ybbR peptide” value [12]?
Its value is “no”.

What about the “AcpH qualitative CP activity” value [13] of the same substance?
Its value is “no”.

And the “removal of rhodamine-PPT” value [24]?
The value was “AcpH removed rhodamine-PPT from ACP attached to three different fusion partners, an N-terminal maltose binding protein (MBP)”.

What about the “AcpH qualitative CP activity” value [14] of the same substance?
The value was “YES”.

And the “AcpH qualitative CP activity” value [15]?
Its value is “no”.

What about the “AcpH activity with NRPS-type peptidyl carrier proteins” value [16] of the same substance?
Its value is “The observed partial activity resulted from PaAcpH with PltL”.

And the “AcpH qualitative CP activity” value [16]?
The value was “YES”.

And the “AcpH qualitative CP activity” value [17]?
The value was “YES”.

And the “removal of rhodamine-PPT” value [25]?
Its value is “AcpH removed rhodamine-PPT from ACP attached to three different fusion partners ... a C-terminal green fluorescent protein (GFP)”.

What about the “AcpH qualitative CP activity” value [18] of the same substance?
Its value is “YES”.

And the “AcpH qualitative CP activity” value [19]?
The value was “YES”.

What about the “AcpH activity with modified ybbR peptide” value [20] of the same substance?
Its value is “no”.

What about the “AcpH qualitative CP activity” value [21] of the same substance?
Its value is “no”.

What about the Km [22] of the same substance?
Its Km is 12 µM.

What about the Vmax [22] of the same substance?
The Vmax was 0.59 min⁻¹.

What about the kcat [22] of the same substance?
The kcat was 0.00983 s⁻¹.

And the kcat/KM [22]?
Its kcat/KM is 817 M⁻¹ s⁻¹.

Which results are given for “acyl carrier protein hydrolase (AcpH) from Pseudomonas fluorescens NCIMB 10586”?
AcpH qualitative CP activity [1]: YES; AcpH activity with modified ybbR peptide [2]: YES; Km [3]: 48 µM; Vmax [3]: 0.17 min⁻¹; kcat [3]: 0.00283 s⁻¹; kcat/KM [3]: 50 M⁻¹ s⁻¹; AcpH qualitative CP activity [4]: no; AcpH qualitative CP activity [5]: YES; AcpH qualitative CP activity [6]: YES; AcpH qualitative CP activity [7]: YES^†; AcpH qualitative CP activity [8]: YES; AcpH qualitative CP activity [9]: YES; AcpH activity with modified ybbR peptide [10]: YES; AcpH qualitative CP activity [11]: no; AcpH activity with modified ybbR peptide [12]: YES; AcpH qualitative CP activity [13]: no; AcpH qualitative CP activity [14]: YES; AcpH qualitative CP activity [15]: no; AcpH qualitative CP activity [16]: no; AcpH qualitative CP activity [17]: YES; AcpH qualitative CP activity [18]: YES; AcpH qualitative CP activity [19]: YES; AcpH activity with modified ybbR peptide [20]: YES; AcpH qualitative CP activity [21]: no

What does the source list for “annotated hypothetical AcpH homolog from Shewanella oneidensis MR-1”?
AcpH qualitative CP activity [1]: no; AcpH activity with modified ybbR peptide [2]: no; AcpH qualitative CP activity [4]: no; AcpH qualitative CP activity [5]: no; AcpH qualitative CP activity [6]: no; AcpH qualitative CP activity [7]: no; AcpH qualitative CP activity [8]: no; AcpH qualitative CP activity [9]: no; AcpH activity with modified ybbR peptide [10]: no; AcpH qualitative CP activity [11]: no; AcpH activity with modified ybbR peptide [12]: no; AcpH qualitative CP activity [13]: no; AcpH qualitative CP activity [14]: no; AcpH qualitative CP activity [15]: no; AcpH qualitative CP activity [16]: no; AcpH qualitative CP activity [17]: no; AcpH qualitative CP activity [18]: no; AcpH qualitative CP activity [19]: no; AcpH activity with modified ybbR peptide [20]: no; AcpH qualitative CP activity [21]: no; Vmax [22]: NC†
